Results taken from the DeepSol protein solubility set.

Experiment: soluble on expression in E. coli; label from the status in PepcDB or PDB records

Sequence | soluble on expression in E. coli
MGSDKIHHHHHHMLRSLPVLMYHYISRVHDSIAVHPDQFEDHCRGMAAEGWRGVSLAEAEAFLAEGTPLPERSVLITFDDGFLDNYVHALPILEKYGHCGTVFATAGKLETAAGLRPTLADVWSGRIPAEGLPRVDAPFVKHRLGFDERHDLFLNWDEARHAESTGTLAVAAHSMWHRSVFTSASYEGFYAPQRRGRTFDRVEGDVPWGLPRFKVGPALRERAFLPSAELLHAIRETVPQDKDGAYAFFSDTAATERLMHTVEAFGADGLGRFETDAERTERMYREMRDCKQLLENELGHPVTTFCWPWGAFCDEALAIGRELGFRVFLTTLMGSNPPSAPLAVHRFKAKAKPWSWLRLRLHVYSRPLLANLYARMRL | not soluble
MGSDKIHHHHHHMTTNKEQYKVHQEPYYQAQGREVQLYEAAYRNRLPVMVKGPTGCGKSRFVEYMAWKLNKPLITVACNEDMTASDLVGRYLLEANGTRWLDGPLTTAARIGAICYLDEVVEARQDTTVVIHPLTDHRRTLPLDKKGELIEAHPDFQLVISYNPGYQSLMKDLKQSTKQRFAAFDFDYPDAALETTILARETGLDETTAGRLVKIGGVARNLKGHGLDEGISTRLLVYAATLMKDGVDAGDACRMALVRPITDDADIRETLDHAIDATFA | not soluble
MAHHHHHHMGIGWEKLDNWEDVPDAGGKYGPLRGPSLVDLQGHVFAIAEAHCKDGGDCSDVGFTGIASKYLDLIGVADPTEILTADASIFGADLLKEGSEVISARNGITRPTTLVLGDSVYVLPGNYSHTGPQVGGTNERGLLLLKGTLTDEGGRKKIKWNETHVVEPQGRGDSRSLTELVGGGGSGAVLRDGTLVFPMQAKDKDGTSVLLSMRFPNSGNKWELSSETPGKGCRDPTLVKWEEKKDDERLFMMAHCAGDYYDVYRSTPHGVNWYTSGQPITRVWGNSHNRKGTVSGVDPPPQSLRKRS | not soluble
GAMAPSTIWHCFLKGTRLCFHKESNKEWQDVEDFARAASCDNEEEIQMGTHKGYGSDGLKLLSHEESVSFGESVLKLTFDPGTVEDGLLTVECKLDHPFYVKNKGWSSFYPSLTVVQHGIPCCEIHIGDVCLPPGHPDAINF | soluble
GMNLQTDQTTTTADESAIRAFHRQMIDAWNRGSGEGFAAPFSETADFITFEGTHLKGRKEIAAFHQQAFDTVVKGTRLEGEVDFVRFVNSQLALMLVVIRVILPGQTETSASRDSLPLYVVTKGDEGWQIEGLLNTRKLTLERQFFLDDFDSLSAEAQRQVTDLVASLKQSH | soluble
MGSDKIHHHHHHMAAIPTYKLYGEKTEVSGEFLLHCETLFSRSSLYRFEIDLHRHENFLQILYISEGQGDATLDGKVIAITPPAAIVVPPLFSHGFRFSRSIKGMIITVLPAALPLAVRTSLKQALPLPLHMPLEGEPCAIEISLLMERIADEYAGAKPGRNGLLEAYLATVVLLLARQAAPDASQDLMTLTANDRRMEKLAALIAANFRSHKTAAFYAREMGLSPTHLNRLAKAGTGATLQQLIARKQLEIAQQELIFSQTSIQAIALNHGFTDPAYFTRFFTRETGLTPRAWRLAERQKLQNLSDRAQAEISAATASE | not soluble
MTSLVRGQNTPLTSPQLTVTVSGVTPGSVDLMVFQVTTTGNVRSDSDFVFFNQPASPEGAVRLTGPSTVDVDVTKVPHSIDRLRLAVSMDDSAPGSLAAIPGLGVTLGSVSAPALGLTTERAAVLAEIYRRGEQWKIRNVSAGWDTGLKALVTEHGVVVDDAPSHPPAPTYPSTPPAQPPAPVIAPPAPTPTPAPQPRVQRSKITLTKASPTVSLAKGGDTGTMRVNLNWTRGRRGLFGGNGAIDLDLACLYQLNDGSKGVVQALGNAFGDLHYPPYIALDGDDRSGTNAGGENLHINLAHLADFKRILIFAYIYDGTPNWSAADGIVTLYPPHGPEVEVRLDSPDNRARSCAIALLKNERNELTVTREVRYINGTQSDISKAYRWGLKWTAGRK | not soluble
MAQVRQEIAREQEKAARLARNLAKYLSPQVWEMIFSGKKSVRLETQRKKLTVFFSDIRGFTELSEELEAEALTDLLNNYLNEMSKIALKYGGTIDKFVGDCVMVFFGDPSTQGAKKDAVAAVSMGIAMRKHMKVLRQQWRAQGITKPLEIRMGINTGYCTVGNFGADTRMDYTIIGREVNLASRLESASEAGEILISHETYSLIKDVIMCRDKGQIAVKGFSRPVQIYQVVDSRRDLGAAPSYVEHELPGFSMYLDTNNIQNYDKERVIQALQQAAER | not soluble
MGSDKIHHHHHHMFRRIREDLIKNHMEGPQGFRSMLAGWVECGFCTIVEDEIRFWNGSRIYLCHCKDEKDRFKYQGAEIHVLLIDELTHFTEVIYRFLRNRVRMVGIKLPAKYAGRFPRILCGANPGGIGHQFVKATFIDGATAMKVYTTEASEGGMRRQFIPAQLEDNPSMNDNDPGYENRLMGLGSESLVRAMRYGDWDVVEGAYFDNFERRRHVVKPFTIPDHWIRFRAGDWGSAKPFAFGWYVVASDDTIIAPGVVVPRGALVKYREWYGVKIDKSGKFLPDVGLKLHAEAVGAGVRQRDYDDIIVYGVLDPAAFSQDGGPSIAERMTRGTTGSNGSTFRRADNKRTAGRGAMGGWDQLRGRLTGDGDGRPMLFFFDTCIHTIRTLPALQHDEANPEDLDTKQEDHAADETRYACMSRPWIAKSKVPAPQVPEGHIALPGAPDEAAGNRRIRI | not soluble
MGDTTFLIEFDHPAAVYSPGQNVAGKLTIRNRNALNALALKICIHGDIETLWRKFENKGRYDRHGRWYRSSEHINYTSKINVLEGIAQPWSSIENANNKIPGGVNIFPFLFQLPANLPPSFEGTHGNVRYSVHVELDRPWRMNVEAKRVFSVIPVIDLNSIPKTINPMIVSSCKHSGLFSNKEVKVKISIPKSGYIPGETIQVSALIQNHTKKPIYSIKAKLEQHVHYQAQQENSHLFPEEHCHKHCEHKTAQTTMSKVEKSCHVEFCSNSQINVPLVLPNQLVPSFRTGIIEVDYCIIVDIGENKKLRCELPITVGTIPIGVFTRPIAYSITEAPPKYENFSQIVEDSQASAPPPEYENEEHF | not soluble
VKFLTVNDDILSMPQARNFCASAGGYLADDLGDDKNNFYSSIAANTQFWIGLFKNSDGQFYWDRGQGINPDLLNQPITYWANGEPSNDPTRQCVYFDGRSGDKSKVWTTDTCATPRPFICQKHRYDSDHKPNTIGDA | soluble
MSLTQQITLIKDKILSDNYFTLHNITYDLTRKDGEVIRHKREVYDRGNGATILLYNTKKKTVVLIRQFRVATWVNGNESGQLIESCAGLLDNDEPEVCIRKEAIEETGYEVGEVRKLFELYMSPGGVTELIHFFIAEYSDNQRANAGGGVEDEDIEVLELPFSQALEMIKTGEIRDGKTVLLLNYLQTSHLMDEGGSHHHHHH | soluble
GMKRAVVVFSGGQDSTTCLIQALQDYDDVHCITFDYGQRHRAEIEVAQELSQKLGAAAHKVLDVGLLNELATSSLTRDSIPVPDYDANAQGIPNTFVPGRNILFLTLASIYAYQVGAEAVITGVCETDFSGYPDCRDEFVKALNQAIVLGIARDIRFETPLMWLNKAETWALADYYQQLDTVRYHTLTCYNGIKGDGCGQCAACHLRANGLAQYQKDAATVMASLKQKVGLR | soluble
VADVVPLDHNNRILVSQGLKRMRSGKMRPGIRALFEVARRDWRKAQPFDMGFALGPRINAAGRLDDMSVGIACLLARDDSEAQELAAQLNNLNIERREIEQSMLQDALNDFPETLPSGQMTLVAYRDDFHQGVVGIV | not soluble
MGSDKIHHHHHHMDNNTLDEYRAVYLTAEDLRLAASILYNAYHDDPFFVDTLSSSDKFAYEQKLRAAIREELNTLWQQKQALIGLFDGAHLMGVACVVTQKVPLGEGRYWHWRLKMLLGTGWQSTQAMMKKESTILELLPSQRCGILQFIALAPNEQGKGLGHQLVQAVVSWCDEQPNLEGIGVFTTQEAHTHLFKQHDFVSLGELVIGSVTGQLLFYTGQQDE | not soluble
MIDGIESGLGIAQAFPSVTGEAKPGNLAADGGKFFGELVSKVSELQAQSDTAIKGLVSGESKGLHEVMIAMEKSSISFQFLSQVRNKAVEAYQEVMRMQV | not soluble
MGSDKIHHHHHHMSSGTENDQFYSFDESDSSSIELYESHNTSEFTIHGLVFPKLISVTSQDSEFDINEDEDGVDTIYEGMLDAPLTKNNKRILCEGSVPNLSYECLTTKGIFERMLQRVDHLQPIFAIPSADILILLQHYDWNEERLLEVWTEKMDELLVELGLSTTANIKKDNDYNSHFREVEFKNDFTCIICCDKKDTETFALECGHEYCINCYRHYIKDKLHEGNIITCMDCSLALKNEDIDKVMGHPSSSKLMDSSIKSFVQKHNRNYKWCPFADCKSIVHLRDTSSLPEYTRLHYSPFVKCNSFHRFCFNCGFEVHSPADCKITTAWVKKARKESEILNWVLSHTKECPKCSVNIEKNGGCNHMVCSSCKYEFCWICEGPWAPHGKNFFQCTMYKNNEDNKSKNPQDANKTLKKYTFYYRLFNEHEVSAKLDWNLGQTLGTKVHALQERIGISWIDGQFLSESLKVLNEGRTVLKWSFAVAYYSDASHNLTKIFVDNQMLLANAVESLSELLQIKTPEVIMKRRPEFYNKAGYVENRTTALMECGRELLCKGICKAAE | not soluble
MGSDKIHHHHHHSDLNSNIKDDPYSGGKAPLGIGLLAESPSPESAYPNDTVVFKAKGMLNWCDPQSGRYDFKFYISDEETKIVTATDTTITVKVPGNLSSGTAYIVLKEQVFYGPRLTVLGNIKIDQSYGFKGTSGPIYDCAEHYSKARVYYPVGDYMQAYYNENSSQSFSCISMVLTDGSVSGKWVTDFKLDPGQGAGIDLANPGVTDIECYLNSFTYFPSDHRVLLSGKFSEYGWDKLPVNNITIATNEVASYYKTVALPSKKNNTSINCKIPVFNGGTLEAPVRTFITSNEKVVAVGNITNYCRINTEKSYAESMVLDYSKVASVLRMSRTGELDDSYRRDAEGVIGQILDACMVESDGIVIVGTFSSFDGQSVKNIVKLNAEGTLDETFMKNIGTGANGSITKIRYNKNKKKILITGEFSEFNGIPAQSVVMLNDDGTRDEIFKIGKMEGGLANFACLLDNDNIVVSGAFTKYDGVTRRGFLILGRDGKALQQFNVPGIFQGELYKVIETRTSTNSNGLLLLGDFSRFDGNMVRNAIMIEVDYE | not soluble
MSLNHPDYKLNLRSPGTPRGVSSVVGPSAVGASPGDKKSKNKSMRGKKKSIFETYMSKEDVSEGLKRGTLIQGVLRINPKKFHEAFIPSPDGDRDIFIDGVVARNRALNGDLVVVKLLPEDQWKAVKPESNDKEIEATYEADIPEEGCGHHPLQQSRKGWSGPDVIIEAQFDDSDSEDRHGNTSGLVDGVKKLSISTPDRGKEDSSTPVMKDENTPIPQDTRGLSEKSLQKSAKVVYILEKKHSRAATGILKLLADKNSDLFKKYALFSPSDHRVPRIYVPLKDCPQDFMTRPKDFANTLFICRIIDWKEDCNFALGQLAKSLGQAGEIEPETEGILTEYGVDFSDFSSEVLECLPQSLPWTIPPDEVGKRRDLRKDCIFTIDPSTARDLDDALACRRLTDGTFEVGVHIADVSYFVPEGSSLDKVAAERATSVYLVQKVVPMLPRLLCEELCSLNPMTDKLTFSVIWKLTPEGKILEEWFGRTIIRSCTKLSYDHAQSMIENPTEKIPEEELPPISPEHSVEEVHQAVLNLHSIAKQLRRQRFVDGALRLDQLKLAFTLDHETGLPQGCHIYEYRDSNKLVEEFMLLANMAVAHKIFRTFPEQALLRRHPPPQTKMLSDLVEFCDQMGLPMDVSSAGALNKSLTKTFGDDKYSLARKEVLTNMYSRPMQMALYFCSGMLQDQEQFRHYALNVPLYTHFTSPIRRFADVIVHRLLAAALGYSEQPDVEPDTLQKQADHCNDRRMASKRVQELSIGLFFAVLVKESGPLESEAMVMGVLNQAFDVLVLRFGVQKRIYCNALALRSYSFQKVGKKPELTLVWEPDDLEEEPTQQVITIFSLVDVVLQAEATALKYSAILKRPGLEKASEGHHHHHH | soluble
